This is an account of results in paper PMC3100534 (Nanomedicine : nanotechnology, biology, and medicine, 2011).

The conditions of data set [1]: cited from earlier work.
The format of data set [2] is physicochemical. To be noted: N = 90/x, ~90 DSPE-PEG2000 monomers per SSM, x = lipid molecules at saturation.

Consider Human neuropeptide Y [NPY], for which the half-life in vivo entry in data set [1] is listed as “minutes”. The “maximal number of NPY molecules that could self-associate with one SSM” value in data set [2] is “three”.
